In FireProtDB (doi:10.1021/bi00010a002):

Conditions: Saccharomyces cerevisiae (strain ATCC 204508 / S288c), pH 2.1, Thermal, CD, Na2SO4-H2SO4 0.33 M
[1] = reversible: yes (>70%), structure 1YCC
[2] = reversible: yes (>80%), structure 1YCC

Chain of Cytochrome c isoform 1 L100I, P00044 (P00044 whole entry L100I, canonical isoform): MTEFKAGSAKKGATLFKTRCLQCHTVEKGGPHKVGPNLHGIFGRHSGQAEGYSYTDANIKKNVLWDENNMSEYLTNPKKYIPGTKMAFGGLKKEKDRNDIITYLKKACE
Chain of Cytochrome c isoform 1 F16W, P00044 (P00044 whole entry F16W, canonical isoform): as the sequence (P00044 whole entry L100I, canonical isoform) above, with F16W, I100L counted along it
Chain of Cytochrome c isoform 1 Y103F, P00044 (P00044 whole entry Y103F, canonical isoform): as the sequence (P00044 whole entry L100I, canonical isoform) above, with I100L, Y103F counted along it
Chain of Cytochrome c isoform 1 F16Y, P00044 (P00044 whole entry F16Y, canonical isoform): as the sequence (P00044 whole entry L100I, canonical isoform) above, with F16Y, I100L counted along it
Chain of Cytochrome c isoform 1 A13Y, P00044 (P00044 whole entry A13Y, canonical isoform): as the sequence (P00044 whole entry L100I, canonical isoform) above, with A13Y, I100L counted along it
Chain of Cytochrome c isoform 1 A13L, P00044 (P00044 whole entry A13L, canonical isoform): as the sequence (P00044 whole entry L100I, canonical isoform) above, with A13L, I100L counted along it
Chain of Cytochrome c isoform 1 wild type, P00044 (P00044 whole entry, canonical isoform): as the sequence (P00044 whole entry L100I, canonical isoform) above, with I100L counted along it

Substance	Tm [1]	change of melting temperature, mutant - wild type (higher = more stable) [1]	unfolding enthalpy (van 't Hoff) [1]	Tm [2]	change of melting temperature, mutant - wild type (higher = more stable) [2]	unfolding enthalpy (van 't Hoff) [2]	Tm (reversible: yes (>90%))	unfolding enthalpy (van 't Hoff) (reversible: yes (>90%))
Cytochrome c isoform 1 F16Y, P00044	28.4 °C	-7 °C	40.6 kcal/mol					
Cytochrome c isoform 1 A13Y, P00044				36 °C	0.6 °C	41.5 kcal/mol		
Cytochrome c isoform 1 F16W, P00044				23.1 °C	-12.3 °C	28.9 kcal/mol		
Cytochrome c isoform 1 Y103F, P00044				33.3 °C	-2.1 °C	33 kcal/mol		
Cytochrome c isoform 1 L100I, P00044				33.7 °C	-1.7 °C	35.8 kcal/mol		
Cytochrome c isoform 1 wild type, P00044							35.4 °C	38.1 kcal/mol
Cytochrome c isoform 1 A13L, P00044				33.7 °C	-1.7 °C	37.9 kcal/mol		
